Test results as given in the supplement of paper PMC9170038.

System: K4 kissing-loop RNA reporter
Test: apparent KD of K4 kissing-loop reporter; higher = weaker reporter binding
Settings: Eterna round: R107
Method: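 RNA-MaP round R107: designed RNA switches with theophylline, tryptophan, arginine or FMN aptamers are transcribed on-chip within common flanks. They are titrated with a labelled K4 kissing-loop RNA reporter in RNA-MaP buffer (100 mM Tris pH 7.5, 80 mM KCl, 4 mM MgCl2), without ligand or with the indicated ligand. Median apparent KD per design.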

[1] = input ligand: theophylline 20 uM
[2] = input ligand: tryptophan 2.4 mM
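Further: bound reporter read as fluorescence of individual clusters on recovered sequencing chips by microscopy, with normalized cluster intensities fitted with a binding model.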

Sequence: UCGGACCCUGGAGGAUAUGAGUCUAGUGAUGUUAGGCGGUCCAUGCCGGUGCGGCGUUAUGCCCUUUUAGAAGGCCAGGGUCCGA [#2 Exclusion - FMN B Attempt #14 (HarryS)]
- apparent KD of K4 kissing-loop reporter (input ligand: FMN 200 uM): 143 nM
- apparent KD of K4 kissing-loop reporter (input ligand: arginine 13.2 mM): 78.8 nM
- apparent KD of K4 kissing-loop reporter (input ligand: none): 107 nM
- apparent KD of K4 kissing-loop reporter [1]: 102 nM
- apparent KD of K4 kissing-loop reporter [2]: 112 nM

Sequence: UGAUAGGACAGAAGGAGCGGGAGUGAUGUUCCCAAAAGAAUAAGGUGUCAAAAGACACCCUUCCAGGUAGGUCGCUGUCCUAUCU
- apparent KD of K4 kissing-loop reporter (input ligand: FMN 200 uM): 82.2 nM
- apparent KD of K4 kissing-loop reporter (input ligand: arginine 13.2 mM): 131 nM
- apparent KD of K4 kissing-loop reporter (input ligand: none): 106 nM
- apparent KD of K4 kissing-loop reporter [1]: 119 nM
- apparent KD of K4 kissing-loop reporter [2]: 87.4 nM

Sequence: UGACUGGACUGAAGGAGCGCGAAACUCCUAGUGAUGUUAGGAAAACGAGACAAAGUCUCGACGCAGGUAGGUCGCAGUCUAGUCU
- apparent KD of K4 kissing-loop reporter (input ligand: FMN 200 uM): 125 nM
- apparent KD of K4 kissing-loop reporter (input ligand: arginine 13.2 mM): 102 nM
- apparent KD of K4 kissing-loop reporter (input ligand: none): 103 nM
- apparent KD of K4 kissing-loop reporter [1]: 115 nM
- apparent KD of K4 kissing-loop reporter [2]: 135 nM

Sequence: AGUGAUGUUGAGUGAUGUUAGUGAAGUGAUCGAGGACCGGUACGGCCGCCACUCGAGUGAUGAGUGAGUGAUGUUUGUUUAGUGA [hhbmullin]
- apparent KD of K4 kissing-loop reporter (input ligand: FMN 200 uM): 168 nM
- apparent KD of K4 kissing-loop reporter (input ligand: arginine 13.2 mM): 74.4 nM
- apparent KD of K4 kissing-loop reporter (input ligand: none): 113 nM
- apparent KD of K4 kissing-loop reporter [1]: 120 nM
- apparent KD of K4 kissing-loop reporter [2]: 78.2 nM

Sequence: AAUUGGCAGUGAUGUUGUCAAGGACAUACGAAGGAUAUAAGUGAAGUUAGAAGGUCGACCAUCACUUCUUUGCCAUUUGCAUGAC [theeternabot_exclusion_KL_FMN_A_20]
- apparent KD of K4 kissing-loop reporter (input ligand: FMN 200 uM): 238 nM
- apparent KD of K4 kissing-loop reporter (input ligand: arginine 13.2 mM): 214 nM
- apparent KD of K4 kissing-loop reporter (input ligand: none): 207 nM
- apparent KD of K4 kissing-loop reporter [1]: 243 nM
- apparent KD of K4 kissing-loop reporter [2]: 193 nM

Sequence: AUAGGAGUGAUGUUCCUUAGUUUCUCCGAUACCAGUAUGGAAACAUACCCUUGGCAGCGGUAAACCGCAGAUUAGGAAACUAGUC [Theophylline A K4 2]
- apparent KD of K4 kissing-loop reporter (input ligand: FMN 200 uM): 308 nM
- apparent KD of K4 kissing-loop reporter (input ligand: arginine 13.2 mM): 332 nM
- apparent KD of K4 kissing-loop reporter (input ligand: none): 324 nM
- apparent KD of K4 kissing-loop reporter [1]: 241 nM
- apparent KD of K4 kissing-loop reporter [2]: 297 nM

Sequence: AUGGGCACGUCGGCCGCCACUACACGGUCCCGCGAGGGCCAGUGAUGUUGGUCGACGUGCCGUUGUAGGACCGGGACGUGGCUGU [Teatondi]
- apparent KD of K4 kissing-loop reporter (input ligand: FMN 200 uM): 125 nM
- apparent KD of K4 kissing-loop reporter (input ligand: arginine 13.2 mM): 54.5 nM
- apparent KD of K4 kissing-loop reporter (input ligand: none): 79 nM
- apparent KD of K4 kissing-loop reporter [1]: 103 nM
- apparent KD of K4 kissing-loop reporter [2]: 83.3 nM

Sequence: AAUAUAUAGUGAAGGAGCGCGAUAAGCAGUGAUGUUGCUUAGCUAUUAUUCAUUAUUUUUACGCAGGUAGGUCGCACUAUAUAUA [JR_ExcArginiB_Sub014]
- apparent KD of K4 kissing-loop reporter (input ligand: FMN 200 uM): 138 nM
- apparent KD of K4 kissing-loop reporter (input ligand: arginine 13.2 mM): 128 nM
- apparent KD of K4 kissing-loop reporter (input ligand: none): 144 nM
- apparent KD of K4 kissing-loop reporter [1]: 133 nM
- apparent KD of K4 kissing-loop reporter [2]: 139 nM

Sequence: UCCUGCAAUCAGCCACGAAAGUGGAUGGAUACCAGAGUCGAAAGACUCCCUUGGCAGCCAGUGAUGUUGGAAGCAGGUAAAUAAA
- apparent KD of K4 kissing-loop reporter (input ligand: FMN 200 uM): 583 nM
- apparent KD of K4 kissing-loop reporter (input ligand: arginine 13.2 mM): 501 nM
- apparent KD of K4 kissing-loop reporter (input ligand: none): 761 nM
- apparent KD of K4 kissing-loop reporter [1]: 342 nM
- apparent KD of K4 kissing-loop reporter [2]: 1290 nM

Sequence: AACCUGACGACGAGUGAUGUUCGAUGGGAAGGAGCGCGAAGAAAUGCAGGUAGGUCGCCCUAAGAGAGUGUAACGUCAGGAUUAU [1.)]
- apparent KD of K4 kissing-loop reporter (input ligand: FMN 200 uM): 364 nM
- apparent KD of K4 kissing-loop reporter (input ligand: arginine 13.2 mM): 303 nM
- apparent KD of K4 kissing-loop reporter (input ligand: none): 286 nM
- apparent KD of K4 kissing-loop reporter [1]: 348 nM
- apparent KD of K4 kissing-loop reporter [2]: 191 nM

Sequence: UAAGAGGACCACUGCGAGAGUCCUCGAAUACGAGGACCGGUACGGCCGCCACUCGAUAACUUGCAGUGAUGUUGCAAGUAAGAAU [BrourdMod 3 - Jieux - Same State Tryptophan A]
- apparent KD of K4 kissing-loop reporter (input ligand: FMN 200 uM): 98.9 nM
- apparent KD of K4 kissing-loop reporter (input ligand: arginine 13.2 mM): 95.4 nM
- apparent KD of K4 kissing-loop reporter (input ligand: none): 94.1 nM
- apparent KD of K4 kissing-loop reporter [1]: 102 nM
- apparent KD of K4 kissing-loop reporter [2]: 81 nM

Sequence: CCACUAUUCUUGUCGGAGUGAUGUUCCGAUACCAGCAUAGAGAUGUGCCCUUGGCAGCGGUCUAUUCUACGCCCGUCUAUUUCAA [Somari]
- apparent KD of K4 kissing-loop reporter (input ligand: FMN 200 uM): 165 nM
- apparent KD of K4 kissing-loop reporter (input ligand: arginine 13.2 mM): 125 nM
- apparent KD of K4 kissing-loop reporter (input ligand: none): 135 nM
- apparent KD of K4 kissing-loop reporter [1]: 157 nM
- apparent KD of K4 kissing-loop reporter [2]: 148 nM

Sequence: CCAUCGCUAUUCGAUACCAGCCAAGAGGUCUUUGGCCUCUUAUUGGAGUGAUGUUCCAUUGGCCCUUGGCAGCGAAUAGUGAUGG [Theophylline B K4 17]
- apparent KD of K4 kissing-loop reporter (input ligand: FMN 200 uM): 356 nM
- apparent KD of K4 kissing-loop reporter (input ligand: arginine 13.2 mM): 192 nM
- apparent KD of K4 kissing-loop reporter (input ligand: none): 343 nM
- apparent KD of K4 kissing-loop reporter [1]: 541 nM
- apparent KD of K4 kissing-loop reporter [2]: 275 nM

Sequence: AAGUGUGUGGCGGCCGCCACUAGAAUCCAGUGAUGUUGGAGAUAUCAGGUAACUGAUAUCCAACAUAGGACCGGGCCAUAUAGAA [Same State - Tryptophan B (Freestyle 11)]
- apparent KD of K4 kissing-loop reporter (input ligand: FMN 200 uM): 152 nM
- apparent KD of K4 kissing-loop reporter (input ligand: arginine 13.2 mM): 104 nM
- apparent KD of K4 kissing-loop reporter (input ligand: none): 144 nM
- apparent KD of K4 kissing-loop reporter [1]: 108 nM
- apparent KD of K4 kissing-loop reporter [2]: 91.9 nM

Sequence: GCGCGGCAGGCGGCCGCCACUCUGACGAGCCACAGUGAUGUUGUGGUCGGAGUAACGUCUUCAUAGAGGACCGGGUUUGUUGUUC [Same State Typtophan A GF 26]
- apparent KD of K4 kissing-loop reporter (input ligand: FMN 200 uM): 224 nM
- apparent KD of K4 kissing-loop reporter (input ligand: arginine 13.2 mM): 212 nM
- apparent KD of K4 kissing-loop reporter (input ligand: none): 239 nM
- apparent KD of K4 kissing-loop reporter [1]: 290 nM
- apparent KD of K4 kissing-loop reporter [2]: 230 nM

Sequence: GCCGUAGAUUGAAGGAGCGGCUUCAUCAAAUCUCUAGCCCACACCAGUGAUGUUGGUGUUAGCCAGGUAGGUCGCAAUCUACGGC
- apparent KD of K4 kissing-loop reporter (input ligand: FMN 200 uM): 421 nM
- apparent KD of K4 kissing-loop reporter (input ligand: arginine 13.2 mM): 313 nM
- apparent KD of K4 kissing-loop reporter (input ligand: none): 450 nM
- apparent KD of K4 kissing-loop reporter [1]: 430 nM
- apparent KD of K4 kissing-loop reporter [2]: 411 nM

Sequence: AGUGGACGUGUCCGGAGUGAUGUUCCGGAUACCAGACACGAAAGUGUCCCUUGGCAGCAGGAGUGAUGUUCCGGCGUUCACUAAA [Omei KL Theo A Exc B v3]
- apparent KD of K4 kissing-loop reporter (input ligand: FMN 200 uM): 351 nM
- apparent KD of K4 kissing-loop reporter (input ligand: arginine 13.2 mM): 223 nM
- apparent KD of K4 kissing-loop reporter (input ligand: none): 314 nM
- apparent KD of K4 kissing-loop reporter [1]: 347 nM
- apparent KD of K4 kissing-loop reporter [2]: 274 nM

Sequence: GCAGAACGCAGUGAUGUUGCGAAAUCGGAAGGAGCGCGUGAAAACGCAGGUAGGUCGCCGACACAGGGAUUAUAUCCCUGUUUGC [Arginine A K4 17]
- apparent KD of K4 kissing-loop reporter (input ligand: FMN 200 uM): 178 nM
- apparent KD of K4 kissing-loop reporter (input ligand: arginine 13.2 mM): 169 nM
- apparent KD of K4 kissing-loop reporter (input ligand: none): 182 nM
- apparent KD of K4 kissing-loop reporter [1]: 206 nM
- apparent KD of K4 kissing-loop reporter [2]: 133 nM

Sequence: CCGCUGUAGUGCAUUAAGUGAUGUUUAGUGCAGGAUAUCUGGAAACAGAGAAGGGCACGUACUCGACGAGGCCAAUACAGCGGUU
- apparent KD of K4 kissing-loop reporter (input ligand: FMN 200 uM): 319 nM
- apparent KD of K4 kissing-loop reporter (input ligand: arginine 13.2 mM): 290 nM
- apparent KD of K4 kissing-loop reporter (input ligand: none): 335 nM
- apparent KD of K4 kissing-loop reporter [1]: 310 nM
- apparent KD of K4 kissing-loop reporter [2]: 358 nM

Sequence: AAAUAAAGCAGUCACCCAGUGAUGUUGGAAGGAGCGUGCGAAAGCACAGGUAGGUCGCCAAAAUAAAAGUGGCUGCGGCAAAGCC [#SwitchBubble 24 #K4Early]
- apparent KD of K4 kissing-loop reporter (input ligand: FMN 200 uM): 627 nM
- apparent KD of K4 kissing-loop reporter (input ligand: arginine 13.2 mM): 283 nM
- apparent KD of K4 kissing-loop reporter (input ligand: none): 492 nM
- apparent KD of K4 kissing-loop reporter [1]: 338 nM
- apparent KD of K4 kissing-loop reporter [2]: 222 nM

Sequence: UGUCAUUGGUCGGCCGCCACUGGACCGGGUAUAAUCCCAGUGAUGUUGGUAAAAUACGGCCGCCACAGGACCGGGACCGAUGACU [TrypBS 15 #DoubleAptamer #SwitchBubble #K4Middle]
- apparent KD of K4 kissing-loop reporter (input ligand: FMN 200 uM): 234 nM
- apparent KD of K4 kissing-loop reporter (input ligand: arginine 13.2 mM): 208 nM
- apparent KD of K4 kissing-loop reporter (input ligand: none): 240 nM
- apparent KD of K4 kissing-loop reporter [1]: 215 nM
- apparent KD of K4 kissing-loop reporter [2]: 134 nM

Sequence: UGUCAUUGGUCGGCCGCCACUUCAUAAAGAGUGAUGUUCUGAAAGACGGAUCGAAAGAUCUGUCGGAGGACCGGGACCGAUGACU [FiskerMod 2 - Jieux - Same State - Tryptophan B]
- apparent KD of K4 kissing-loop reporter (input ligand: FMN 200 uM): 1450 nM
- apparent KD of K4 kissing-loop reporter (input ligand: arginine 13.2 mM): 587 nM
- apparent KD of K4 kissing-loop reporter (input ligand: none): 1440 nM
- apparent KD of K4 kissing-loop reporter [1]: 686 nM
- apparent KD of K4 kissing-loop reporter [2]: 397 nM
